Measured values published in patent US12630600B2 (MEDIMMUNE LIMITED, priority 2022, dated 2026).
Starred links: 1 amine or outer side, 2 acyl side, 3 side chain; linkers in the order of their positions; H or OH if unused. Non-standard residues stand in square brackets, D forms with d. Groups on a side chain read outwards from the residue. Primed or numbered codes have the meaning given here. No end group written: not given here. *: point of attachment. C18 diacid = O=C(O)CCCCCCCCCCCCCCCCC(=O)*; γGlu = O=C(O)[C@H](CCC(=O)[*:2])N[*:1]; Stearoyl = CCCCCCCCCCCCCCCCCC(=O)*; αMeF = C[C@](N)(Cc1ccccc1)C(=O)O; Myristoyl = CCCCCCCCCCCCCC(=O)*; PEG2′ = polyethylene glycol 2; αMeS = C[C@](N)(CO)C(=O)O; AEEA = NCCOCCOCC(=O)O; Aib = CC(C)(N)C(=O)O

Assays:
human GLP-1 receptor = human GLP-1 receptor (human, UniProt P43220); assay: cell-based or functional assay
human glucagon receptor = human glucagon receptor (human, UniProt P47871); assay: cell-based or functional assay

Binder | cAMP production, hGLP-1R EC50 (pM) (human GLP-1 receptor) | cAMP production, hGluc-R EC50 (pM) (human glucagon receptor)
H[αMeS]QGS[αMeF]TSDVSKILDSK([PEG2′-PEG2′-γGlu-γGlu-Myristoyl])AAQD[αMeF]VQ[Aib]IINT-NH2 [Peptide 132] | 0.949 pM | 34.3 pM
HSQGS[αMeF]TSDVSK[Aib]LDSK([AEEA-AEEA-γGlu-C18 diacid])AAQD[αMeF]VQ[Aib]IAN-NH2 (N-terminus assumed; SMILES CC[C@H](C)[C@H](NC(=O)C(C)(C)NC(=O)[C@H](CCC(N)=O)NC(=O)[C@@H](NC(=O)[C@](C)(Cc1ccccc1)NC(=O)[C@H](CC(=O)O)NC(=O)[C@H](CCC(N)=O)NC(=O)[C@H](C)NC(=O)[C@H](C)NC(=O)[C@H](CCCCNC(=O)COCCOCCNC(=O)COCCOCCNC(=O)CC[C@H](NC(=O)CCCCCCCCCCCCCCCCC(=O)O)C(=O)O)NC(=O)[C@H](CO)NC(=O)[C@H](CC(=O)O)NC(=O)[C@H](CC(C)C)NC(=O)C(C)(C)NC(=O)[C@H](CCCCN)NC(=O)[C@H](CO)NC(=O)[C@@H](NC(=O)[C@H](CC(=O)O)NC(=O)[C@H](CO)NC(=O)[C@@H](NC(=O)[C@](C)(Cc1ccccc1)NC(=O)[C@H](CO)NC(=O)CNC(=O)[C@H](CCC(N)=O)NC(=O)[C@H](CO)NC(=O)[C@@H](N)Cc1c[nH]cn1)[C@@H](C)O)C(C)C)C(C)C)C(=O)N[C@@H](C)C(=O)N[C@@H](CC(N)=O)C(N)=O) [Peptide 1] | 3200 pM | > 27100 pM
H[αMeS]QGS[αMeF]TSDVSKILDSK([PEG2′-PEG2′-γGlu-Stearoyl])AAQD[αMeF]VQ[Aib]IINT-NH2 [Peptide 133] | 1.06 pM | 30 pM
H[Aib]HGS[αMeF]TSDVSK[αMeF]LDSK([AEEA-AEEA-γGlu-C18 diacid])AARD[αMeF]VE[Aib]IANT-NH2 (N-terminus assumed; SMILES CC[C@H](C)[C@H](NC(=O)C(C)(C)NC(=O)[C@H](CCC(=O)O)NC(=O)[C@@H](NC(=O)[C@](C)(Cc1ccccc1)NC(=O)[C@H](CC(=O)O)NC(=O)[C@H](CCCNC(=N)N)NC(=O)[C@H](C)NC(=O)[C@H](C)NC(=O)[C@H](CCCCNC(=O)COCCOCCNC(=O)COCCOCCNC(=O)CC[C@H](NC(=O)CCCCCCCCCCCCCCCCC(=O)O)C(=O)O)NC(=O)[C@H](CO)NC(=O)[C@H](CC(=O)O)NC(=O)[C@H](CC(C)C)NC(=O)[C@](C)(Cc1ccccc1)NC(=O)[C@H](CCCCN)NC(=O)[C@H](CO)NC(=O)[C@@H](NC(=O)[C@H](CC(=O)O)NC(=O)[C@H](CO)NC(=O)[C@@H](NC(=O)[C@](C)(Cc1ccccc1)NC(=O)[C@H](CO)NC(=O)CNC(=O)[C@H](Cc1c[nH]cn1)NC(=O)C(C)(C)NC(=O)[C@@H](N)Cc1c[nH]cn1)[C@@H](C)O)C(C)C)C(C)C)C(=O)N[C@@H](C)C(=O)N[C@@H](CC(N)=O)C(=O)N[C@H](C(N)=O)[C@@H](C)O) [Peptide 15] | 33.1 pM | 61.4 pM
H[Aib]HGS[αMeF]TSDVSK[αMeF]LDSK([AEEA-AEEA-γGlu-C18 diacid])AARD[αMeF]IA[Aib]IANT-NH2 (N-terminus assumed; SMILES CC[C@H](C)[C@H](NC(=O)C(C)(C)NC(=O)[C@H](C)NC(=O)[C@@H](NC(=O)[C@](C)(Cc1ccccc1)NC(=O)[C@H](CC(=O)O)NC(=O)[C@H](CCCNC(=N)N)NC(=O)[C@H](C)NC(=O)[C@H](C)NC(=O)[C@H](CCCCNC(=O)COCCOCCNC(=O)COCCOCCNC(=O)CC[C@H](NC(=O)CCCCCCCCCCCCCCCCC(=O)O)C(=O)O)NC(=O)[C@H](CO)NC(=O)[C@H](CC(=O)O)NC(=O)[C@H](CC(C)C)NC(=O)[C@](C)(Cc1ccccc1)NC(=O)[C@H](CCCCN)NC(=O)[C@H](CO)NC(=O)[C@@H](NC(=O)[C@H](CC(=O)O)NC(=O)[C@H](CO)NC(=O)[C@@H](NC(=O)[C@](C)(Cc1ccccc1)NC(=O)[C@H](CO)NC(=O)CNC(=O)[C@H](Cc1c[nH]cn1)NC(=O)C(C)(C)NC(=O)[C@@H](N)Cc1c[nH]cn1)[C@@H](C)O)C(C)C)[C@@H](C)CC)C(=O)N[C@@H](C)C(=O)N[C@@H](CC(N)=O)C(=O)N[C@H](C(N)=O)[C@@H](C)O) [Peptide 16] | 33 pM | 105 pM
H[Aib]HGS[αMeF]TSDVSK[αMeF]LDSK([AEEA-AEEA-γGlu-C18 diacid])AARD[αMeF]VESIANT-NH2 (N-terminus assumed; SMILES CC[C@H](C)[C@H](NC(=O)[C@H](CO)NC(=O)[C@H](CCC(=O)O)NC(=O)[C@@H](NC(=O)[C@](C)(Cc1ccccc1)NC(=O)[C@H](CC(=O)O)NC(=O)[C@H](CCCNC(=N)N)NC(=O)[C@H](C)NC(=O)[C@H](C)NC(=O)[C@H](CCCCNC(=O)COCCOCCNC(=O)COCCOCCNC(=O)CC[C@H](NC(=O)CCCCCCCCCCCCCCCCC(=O)O)C(=O)O)NC(=O)[C@H](CO)NC(=O)[C@H](CC(=O)O)NC(=O)[C@H](CC(C)C)NC(=O)[C@](C)(Cc1ccccc1)NC(=O)[C@H](CCCCN)NC(=O)[C@H](CO)NC(=O)[C@@H](NC(=O)[C@H](CC(=O)O)NC(=O)[C@H](CO)NC(=O)[C@@H](NC(=O)[C@](C)(Cc1ccccc1)NC(=O)[C@H](CO)NC(=O)CNC(=O)[C@H](Cc1c[nH]cn1)NC(=O)C(C)(C)NC(=O)[C@@H](N)Cc1c[nH]cn1)[C@@H](C)O)C(C)C)C(C)C)C(=O)N[C@@H](C)C(=O)N[C@@H](CC(N)=O)C(=O)N[C@H](C(N)=O)[C@@H](C)O) [Peptide 17] | 45 pM | 135 pM
H[Aib]HGS[αMeF]TSDVSK[αMeF]LDSK([AEEA-AEEA-γGlu-C18 diacid])AARD[αMeF]VQSIANT-NH2 (N-terminus assumed; SMILES CC[C@H](C)[C@H](NC(=O)[C@H](CO)NC(=O)[C@H](CCC(N)=O)NC(=O)[C@@H](NC(=O)[C@](C)(Cc1ccccc1)NC(=O)[C@H](CC(=O)O)NC(=O)[C@H](CCCNC(=N)N)NC(=O)[C@H](C)NC(=O)[C@H](C)NC(=O)[C@H](CCCCNC(=O)COCCOCCNC(=O)COCCOCCNC(=O)CC[C@H](NC(=O)CCCCCCCCCCCCCCCCC(=O)O)C(=O)O)NC(=O)[C@H](CO)NC(=O)[C@H](CC(=O)O)NC(=O)[C@H](CC(C)C)NC(=O)[C@](C)(Cc1ccccc1)NC(=O)[C@H](CCCCN)NC(=O)[C@H](CO)NC(=O)[C@@H](NC(=O)[C@H](CC(=O)O)NC(=O)[C@H](CO)NC(=O)[C@@H](NC(=O)[C@](C)(Cc1ccccc1)NC(=O)[C@H](CO)NC(=O)CNC(=O)[C@H](Cc1c[nH]cn1)NC(=O)C(C)(C)NC(=O)[C@@H](N)Cc1c[nH]cn1)[C@@H](C)O)C(C)C)C(C)C)C(=O)N[C@@H](C)C(=O)N[C@@H](CC(N)=O)C(=O)N[C@H](C(N)=O)[C@@H](C)O) [Peptide 18] | 20.5 pM | 122 pM
H[Aib]HGS[αMeF]TSDVSK[αMeF]LDSK([AEEA-AEEA-γGlu-γGlu-C18 diacid])AARD[αMeF]VQ[Aib]IANT-NH2 (N-terminus assumed; SMILES CC[C@H](C)[C@H](NC(=O)C(C)(C)NC(=O)[C@H](CCC(N)=O)NC(=O)[C@@H](NC(=O)[C@](C)(Cc1ccccc1)NC(=O)[C@H](CC(=O)O)NC(=O)[C@H](CCCNC(=N)N)NC(=O)[C@H](C)NC(=O)[C@H](C)NC(=O)[C@H](CCCCNC(=O)COCCOCCNC(=O)COCCOCCNC(=O)CC[C@H](NC(=O)CC[C@H](NC(=O)CCCCCCCCCCCCCCCCC(=O)O)C(=O)O)C(=O)O)NC(=O)[C@H](CO)NC(=O)[C@H](CC(=O)O)NC(=O)[C@H](CC(C)C)NC(=O)[C@](C)(Cc1ccccc1)NC(=O)[C@H](CCCCN)NC(=O)[C@H](CO)NC(=O)[C@@H](NC(=O)[C@H](CC(=O)O)NC(=O)[C@H](CO)NC(=O)[C@@H](NC(=O)[C@](C)(Cc1ccccc1)NC(=O)[C@H](CO)NC(=O)CNC(=O)[C@H](Cc1c[nH]cn1)NC(=O)C(C)(C)NC(=O)[C@@H](N)Cc1c[nH]cn1)[C@@H](C)O)C(C)C)C(C)C)C(=O)N[C@@H](C)C(=O)N[C@@H](CC(N)=O)C(=O)N[C@H](C(N)=O)[C@@H](C)O) [Peptide 19] | 38.3 pM | 133 pM
H[Aib]HGS[αMeF]TSDVSK[αMeF]LDSK([γGlu-C18 diacid])AAQD[αMeF]VESIANT-NH2 (N-terminus assumed; SMILES CC[C@H](C)[C@H](NC(=O)[C@H](CO)NC(=O)[C@H](CCC(=O)O)NC(=O)[C@@H](NC(=O)[C@](C)(Cc1ccccc1)NC(=O)[C@H](CC(=O)O)NC(=O)[C@H](CCC(N)=O)NC(=O)[C@H](C)NC(=O)[C@H](C)NC(=O)[C@H](CCCCNC(=O)CC[C@H](NC(=O)CCCCCCCCCCCCCCCCC(=O)O)C(=O)O)NC(=O)[C@H](CO)NC(=O)[C@H](CC(=O)O)NC(=O)[C@H](CC(C)C)NC(=O)[C@](C)(Cc1ccccc1)NC(=O)[C@H](CCCCN)NC(=O)[C@H](CO)NC(=O)[C@@H](NC(=O)[C@H](CC(=O)O)NC(=O)[C@H](CO)NC(=O)[C@@H](NC(=O)[C@](C)(Cc1ccccc1)NC(=O)[C@H](CO)NC(=O)CNC(=O)[C@H](Cc1c[nH]cn1)NC(=O)C(C)(C)NC(=O)[C@@H](N)Cc1c[nH]cn1)[C@@H](C)O)C(C)C)C(C)C)C(=O)N[C@@H](C)C(=O)N[C@@H](CC(N)=O)C(=O)N[C@H](C(N)=O)[C@@H](C)O) [Peptide 21] | 378 pM | 68.8 pM
